Patent publication US20260001928A1 (CORTERIA PHARMACEUTICALS, priority 2022, published 2026)
*1 amine or outer side, *2 acyl side, *3 side chain or, on linkers, in order; H or OH if unused. Where no end group is shown, it is not given here. Side-chain parts run from the residue outwards. [ ]: non-standard residue; d: D form. The star is where a group is joined. C18 diacid = O=C(O)CCCCCCCCCCCCCCCCC(=O)*; C16 diacid = O=C(O)CCCCCCCCCCCCCCC(=O)*; γGlu = O=C(O)[C@H](CCC(=O)[*:2])N[*:1]; NMeI = CC[C@H](C)[C@H](NC)C(=O)O; Api = NC1(C(=O)O)CCNCC1; Abu = CC[C@H](N)C(=O)O; Aib = CC(C)(N)C(=O)O

T1: CRF1R receptor (UniProt P34998 24-415, limits assumed)
T1 sequence (looked up): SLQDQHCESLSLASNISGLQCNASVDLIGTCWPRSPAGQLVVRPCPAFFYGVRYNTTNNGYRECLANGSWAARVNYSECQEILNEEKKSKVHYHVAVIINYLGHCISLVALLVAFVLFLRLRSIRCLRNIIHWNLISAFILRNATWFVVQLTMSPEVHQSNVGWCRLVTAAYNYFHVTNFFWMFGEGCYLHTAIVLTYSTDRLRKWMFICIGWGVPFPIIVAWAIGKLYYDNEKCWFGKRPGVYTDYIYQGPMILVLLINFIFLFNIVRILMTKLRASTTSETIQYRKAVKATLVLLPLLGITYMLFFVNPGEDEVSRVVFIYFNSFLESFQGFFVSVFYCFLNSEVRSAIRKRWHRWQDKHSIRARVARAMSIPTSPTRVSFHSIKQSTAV


Tests used:
[1] = target: human corticotropin-releasing factor 2a (CRF2a receptor) (human), Q13324; test: cell-based or functional assay
CRF1R receptor = target: T1, CRF1R receptor; test: cell-based or functional assay

human corticotropin-releasing factor 2a (CRF2a receptor) (human), Q13324, sequence (Q13324 20-411): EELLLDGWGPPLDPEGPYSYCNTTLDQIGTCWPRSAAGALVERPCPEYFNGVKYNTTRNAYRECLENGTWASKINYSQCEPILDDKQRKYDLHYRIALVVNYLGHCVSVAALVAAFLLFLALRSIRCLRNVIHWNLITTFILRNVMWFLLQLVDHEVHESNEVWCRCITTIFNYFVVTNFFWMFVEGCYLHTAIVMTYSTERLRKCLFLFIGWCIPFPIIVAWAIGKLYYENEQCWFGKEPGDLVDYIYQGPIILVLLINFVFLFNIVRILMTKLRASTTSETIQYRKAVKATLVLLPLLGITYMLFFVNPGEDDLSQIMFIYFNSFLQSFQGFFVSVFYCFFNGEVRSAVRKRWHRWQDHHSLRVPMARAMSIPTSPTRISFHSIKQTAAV

Binder	EC50 [nM] (cAMP) [1]	Emax (% I) (CRF1R receptor)	EC50 (CRF1R receptor)
Ac-IVLSLD[dV]PIKLK([γGlu-C18 diacid])KILLEQEKQKKQREQAETN[Abu]QILAQV-NH2 (SMILES CC[C@H](NC(=O)[C@H](CC(N)=O)NC(=O)[C@@H](NC(=O)[C@H](CCC(=O)O)NC(=O)[C@H](C)NC(=O)[C@H](CCC(N)=O)NC(=O)[C@H](CCC(=O)O)NC(=O)[C@H](CCCNC(=N)N)NC(=O)[C@H](CCC(N)=O)NC(=O)[C@H](CCCCN)NC(=O)[C@H](CCCCN)NC(=O)[C@H](CCC(N)=O)NC(=O)[C@H](CCCCN)NC(=O)[C@H](CCC(=O)O)NC(=O)[C@H](CCC(N)=O)NC(=O)[C@H](CCC(=O)O)NC(=O)[C@H](CC(C)C)NC(=O)[C@H](CC(C)C)NC(=O)[C@@H](NC(=O)[C@H](CCCCN)NC(=O)[C@H](CCCCNC(=O)CC[C@H](NC(=O)CCCCCCCCCCCCCCCCC(=O)O)C(=O)O)NC(=O)[C@H](CC(C)C)NC(=O)[C@H](CCCCN)NC(=O)[C@@H](NC(=O)[C@@H]1CCCN1C(=O)[C@H](NC(=O)[C@H](CC(=O)O)NC(=O)[C@H](CC(C)C)NC(=O)[C@H](CO)NC(=O)[C@H](CC(C)C)NC(=O)[C@@H](NC(=O)[C@@H](NC(C)=O)[C@@H](C)CC)C(C)C)C(C)C)[C@@H](C)CC)[C@@H](C)CC)[C@@H](C)O)C(=O)N[C@@H](CCC(N)=O)C(=O)N[C@H](C(=O)N[C@@H](CC(C)C)C(=O)N[C@@H](C)C(=O)N[C@@H](CCC(N)=O)C(=O)N[C@H](C(N)=O)C(C)C)[C@@H](C)CC) [SEQ ID NO 127]	0.08 nM	11%	
[NMeI]VLSLD[dV]PIKLK([γGlu-C16 diacid])KILLEQEKQKKQREQAETN[Abu]QILAQV-NH2 (N-terminus assumed; SMILES CC[C@H](NC(=O)[C@H](CC(N)=O)NC(=O)[C@@H](NC(=O)[C@H](CCC(=O)O)NC(=O)[C@H](C)NC(=O)[C@H](CCC(N)=O)NC(=O)[C@H](CCC(=O)O)NC(=O)[C@H](CCCNC(=N)N)NC(=O)[C@H](CCC(N)=O)NC(=O)[C@H](CCCCN)NC(=O)[C@H](CCCCN)NC(=O)[C@H](CCC(N)=O)NC(=O)[C@H](CCCCN)NC(=O)[C@H](CCC(=O)O)NC(=O)[C@H](CCC(N)=O)NC(=O)[C@H](CCC(=O)O)NC(=O)[C@H](CC(C)C)NC(=O)[C@H](CC(C)C)NC(=O)[C@@H](NC(=O)[C@H](CCCCN)NC(=O)[C@H](CCCCNC(=O)CC[C@H](NC(=O)CCCCCCCCCCCCCCC(=O)O)C(=O)O)NC(=O)[C@H](CC(C)C)NC(=O)[C@H](CCCCN)NC(=O)[C@@H](NC(=O)[C@@H]1CCCN1C(=O)[C@H](NC(=O)[C@H](CC(=O)O)NC(=O)[C@H](CC(C)C)NC(=O)[C@H](CO)NC(=O)[C@H](CC(C)C)NC(=O)[C@@H](NC(=O)[C@@H](NC)[C@@H](C)CC)C(C)C)C(C)C)[C@@H](C)CC)[C@@H](C)CC)[C@@H](C)O)C(=O)N[C@@H](CCC(N)=O)C(=O)N[C@H](C(=O)N[C@@H](CC(C)C)C(=O)N[C@@H](C)C(=O)N[C@@H](CCC(N)=O)C(=O)N[C@H](C(N)=O)C(C)C)[C@@H](C)CC) [SEQ ID NO 69]	0.09 nM	3%	

More lines, now with the values ahead:

EC50 [nM] (cAMP) [1]	Emax (% I) (CRF1R receptor)	EC50 (CRF1R receptor)	Binder
0.14 nM	39%	236 nM	Ac-IVLSLD[dV]PIKLK([γGlu-C18 diacid])KILLEQEKQKKQREQAETN[Api]QILAQV-NH2 (SMILES CC[C@H](C)[C@H](NC(C)=O)C(=O)N[C@H](C(=O)N[C@@H](CC(C)C)C(=O)N[C@@H](CO)C(=O)N[C@@H](CC(C)C)C(=O)N[C@@H](CC(=O)O)C(=O)N[C@@H](C(=O)N1CCC[C@H]1C(=O)N[C@H](C(=O)N[C@@H](CCCCN)C(=O)N[C@@H](CC(C)C)C(=O)N[C@@H](CCCCNC(=O)CC[C@H](NC(=O)CCCCCCCCCCCCCCCCC(=O)O)C(=O)O)C(=O)N[C@@H](CCCCN)C(=O)N[C@H](C(=O)N[C@@H](CC(C)C)C(=O)N[C@@H](CC(C)C)C(=O)N[C@@H](CCC(=O)O)C(=O)N[C@@H](CCC(N)=O)C(=O)N[C@@H](CCC(=O)O)C(=O)N[C@@H](CCCCN)C(=O)N[C@@H](CCC(N)=O)C(=O)N[C@@H](CCCCN)C(=O)N[C@@H](CCCCN)C(=O)N[C@@H](CCC(N)=O)C(=O)N[C@@H](CCCNC(=N)N)C(=O)N[C@@H](CCC(=O)O)C(=O)N[C@@H](CCC(N)=O)C(=O)N[C@@H](C)C(=O)N[C@@H](CCC(=O)O)C(=O)N[C@H](C(=O)N[C@@H](CC(N)=O)C(=O)NC1(C(=O)N[C@@H](CCC(N)=O)C(=O)N[C@H](C(=O)N[C@@H](CC(C)C)C(=O)N[C@@H](C)C(=O)N[C@@H](CCC(N)=O)C(=O)N[C@H](C(N)=O)C(C)C)[C@@H](C)CC)CCNCC1)[C@@H](C)O)[C@@H](C)CC)[C@@H](C)CC)C(C)C)C(C)C) [SEQ ID NO 129]
0.07 nM	9%		[NMeI]VLSLD[dV]PIKLK([γGlu-C18 diacid])KILLEQEKQKKQREQAETN[Aib]QILAQV-NH2 (N-terminus assumed; SMILES CC[C@H](C)[C@H](NC)C(=O)N[C@H](C(=O)N[C@@H](CC(C)C)C(=O)N[C@@H](CO)C(=O)N[C@@H](CC(C)C)C(=O)N[C@@H](CC(=O)O)C(=O)N[C@@H](C(=O)N1CCC[C@H]1C(=O)N[C@H](C(=O)N[C@@H](CCCCN)C(=O)N[C@@H](CC(C)C)C(=O)N[C@@H](CCCCNC(=O)CC[C@H](NC(=O)CCCCCCCCCCCCCCCCC(=O)O)C(=O)O)C(=O)N[C@@H](CCCCN)C(=O)N[C@H](C(=O)N[C@@H](CC(C)C)C(=O)N[C@@H](CC(C)C)C(=O)N[C@@H](CCC(=O)O)C(=O)N[C@@H](CCC(N)=O)C(=O)N[C@@H](CCC(=O)O)C(=O)N[C@@H](CCCCN)C(=O)N[C@@H](CCC(N)=O)C(=O)N[C@@H](CCCCN)C(=O)N[C@@H](CCCCN)C(=O)N[C@@H](CCC(N)=O)C(=O)N[C@@H](CCCNC(=N)N)C(=O)N[C@@H](CCC(=O)O)C(=O)N[C@@H](CCC(N)=O)C(=O)N[C@@H](C)C(=O)N[C@@H](CCC(=O)O)C(=O)N[C@H](C(=O)N[C@@H](CC(N)=O)C(=O)NC(C)(C)C(=O)N[C@@H](CCC(N)=O)C(=O)N[C@H](C(=O)N[C@@H](CC(C)C)C(=O)N[C@@H](C)C(=O)N[C@@H](CCC(N)=O)C(=O)N[C@H](C(N)=O)C(C)C)[C@@H](C)CC)[C@@H](C)O)[C@@H](C)CC)[C@@H](C)CC)C(C)C)C(C)C) [SEQ ID NO 137]
